Data set [1] has as its system 4T1 tumors. Nature of the data set: Antitumor efficacy in mouse 4T1 syngeneic breast tumor model. The format is in vivo. The note with it: 2 mg/kg DOX; (MST treated/MST control −1)×100. Here is the method: Efficacy of the nanoparticles produced in Example 2 was evaluated in a mouse 4T1 syngeneic breast tumor model, in which the host BALB/c mouse is immune-competent, and the tumor growth and metastatic spread of 4T1 cells closely mimic human breast cancer. Female BALB/c mice at 6 weeks were ordered and within a one-week stay, 50 μL of 1×10^7 4 T1 cells/mL in PBS was injected at the mammary fat pad on the right flank of the mice. Tumor size was calculated using V=0.5×width^2×length.
The nanoparticles with encapsulated DOX produced in Example 2 were used to treat tumors in a mouse 4T1 syngeneic breast tumor model BALB/c mice. The mice were randomly assigned into 4 groups and injected with saline, free DOX in saline, DOX-PLGA-PEG-NPs and DOX-PLGA-PEG-PH20-NPs (PH20 activity of DOX-PLGA-PEG-PH20-NPs is 500 U/mouse) at 2 mg/kg mice of DOX at 9, 11, 14, 17, 20 days after inoculation of 4T1 cells in the mice. The tumors reached a size of 150-250 mm^3 at day 9 before treatment. Tumor sizes were monitored throughout the whole study (FIG. 14A). The survival rate was studied based on the number of mice in each group that survived over time. MST (day) was defined as the time at which half of the mice had died.
The percentage ILS (%) was calculated using the following equation: ILS (%)=[(MST of treated group/MST of control group) −1]*100. […]

For data set [2] the following is noted: free PH20, cited from earlier work.
The test system of data set [3] is pericellular HA layer around PC3 cells. Kind of data set: Degradation of pericellular HA layer around PC3 cells by free PH20. The format is cell-based, human. To be noted: 1000 U of free PH20 for 1 h.
Data set [4] relates to pericellular HA matrix of 4T1 cells. Nature of the data set: Degradation of pericellular HA of 4T1 cells (HA staining, RBC exclusion assay). It is filed as cell-based, mouse. Here is the method:
The nanoparticles produced in Example 2 were tested on tumor cell line 4T1, which synthesizes HA and forms a layer of HA matrix around the cells. 4T1 cells were maintained in a RPMI-1640 medium (ATCC) containing 10% fetal bovine serum in 5% CO2 in an incubator at 37° C. 4T1 cells were cultured on round glass coverslips in a 12-well plate for one day to reach 70% confluency before treatment with the nanoparticles. DiD-labeled PLGA-PEG-NPs (no PH20 activity) and DiD-labeled PLGA-PEG-PH20-NPs (conjugated 10 U/mL PH20 activity) were used for this test. The amount of nanoparticles in all samples was equalized via fluorescence intensity. […]
The 4T1 cells were then washed and fixed and observed under a confocal microscope (Olympus IX81, 60×, C.A.=80 μm) with 405 nm and 635 nm lasers for DAPI and DiD respectively. […] The total fluorescence intensity of DiD was quantified via Image J and averaged by the number of cells.
RBCs were collected fresh from mice and washed three times with PBS before being resuspended in 2% formaldehyde in PBS for fixation of the RBCs overnight at room temperature. […] The areas of exclusion (no RBCs) were quantified through ImageJ. […]

Here are results for two molecules from patent publication US10117886B2, “Hyaluronidase and a low density second PEG layer on the surface of therapeutic-encapsulated nanoparticles to enhance nanoparticle diffusion and circulation” (priority 2014, dated 2018).

Where a name gives a salt, the structure may show the parent alone. Read-outs that look alike come from different tables or passages of the source.

As to `COc1cccc2c1C(=O)c1c(O)c3c(c(O)c1C2=O)C[C@@](O)(C(=O)CO)C[C@@H]3O[C@H]1C[C@H](N)[C@H](O)[C@H](C)O1` [Free DOX, Doxorubicin Hydrochloride salt], in data set [1], the “percentage increased life span ILS (%)” value amounted to 10%.

B1: free PH20: recombinant human hyaluronidase PH20 obtained from Halozyme, Inc, unconjugated (protein, UniProt P38567 36-490, looked up)
Hyaluronidase PH-20: LNFRAPPVIPNVPFLWAWNAPSEFCLGKFDEPLDMSLFSFIGSPRINATGQGVTIFYVDRLGYYPYIDSITGVTVNGGIPQKISLQDHLDKAKKDITFYMPVDNLGMAVIDWEEWRPTWARNWKPKDVYKNRSIELVQQQNVQLSLTEATEKAKQEFEKAGKDFLVETIKLGKLLRPNHLWGYYLFPDCYNHHYKKPGYNGSCFNVEIKRNDDLSWLWNESTALYPSIYLNTQQSPVAATLYVRNRVREAIRVSKIPDAKSPLPVFAYTRIVFTDQVLKFLSQDELVYTFGETVALGASGIVIWGTLSIMRSMKSCLLLDNYMETILNPYIINVTLAAKMCSQVLCQEQGVCIRKNWNSSDYLHLNPDNFAIQLEKGGKFTVRGKPTLEDLEQFSEKFYCSCYSTLSCKEKADVKDTDAVDVCIADGVCIDAFLKPPMETEEPQIFYNASPSTLS
On to B1, for which the results for the circulation half-life result in data set [2] and in data set [2] (listed as PH20) were “less than 3 min” and 3 min, respectively. Further, the “degradation of pericellular HA layer” value in data set [3] is recorded as “sufficient to degrade the pericellular HA layer around PC3 cells”. For the same molecule, in data set [4] (1000 U/mL of PH20, 2 h, 37° C.), the “amount of HA around 4T1 cells, RBC exclusion” value was “reduced to a low level that could no longer block RBCs”. Also, the “degradation of pericellular HA layer around 4T1 cells” value in data set [4] (3000 U of free PH20 for 1 h) is “sufficient to degrade the pericellular HA layer around 4T1 cells”.
